Measurements taken from the supplement of paper PMC10567573.
± gives the standard deviation.

Assay: protein stability index of a GFP-peptide fusion (GPS, HEK-293T) (PSI 1-6); higher = more stable
[1] = treatment: DMSO, c terminus: a fixed tail appended
[2] = treatment: MLN4924 1 uM, 8 h, c terminus: a fixed tail appended
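Further: 24-mer peptide tiles fused after GFP, lentivirally expressed, FACS-sorted into six equal bins by GFP/DsRed ratio, decoded by Illumina sequencing, PSI is the read-weighted mean bin number.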

Row | Sequence | protein stability index [1] | protein stability index [2] | protein stability index (treatment: MLN4924 1 uM, 8 h, c terminus: native)
1 | QNPRQVAQSEAEKKLKKDDKKKEL [ZC3H15] | 5.52 ± 0.22 | 5.58 ± 0.19 | –
2 | IFSFLPAPDRLRASASCSHWRECL [FBXO33] | 2.41 ± 0.28 | 2.07 ± 0.38 | –
3 | VHKTKEQFGQDGPISVHCSAGVGR [PTPRD] | 4.02 ± 0.23 | 4.15 ± 0.25 | –
4 | ICSSLQNLEKTIFCLQKLISLHPF [C8orf76] | 3.28 ± 1 | 2.65 ± 0.39 | –
5 | VNRRISIVGFGLYGSIHGPTDYQV [BTBD1] | 2.65 ± 0.77 | 2.45 ± 1.1 | –
6 | EQGKPVIPAAVLAGFTGSGPIQLW [ETS2] | 2.55 ± 0.43 | 2.54 ± 0.16 | –
7 | RCGVPDVAQFVLTEGNPRWEQTHL [MMP1] | 2.42 ± 0.4 | 2.3 ± 0.24 | –
8 | TVLKQIAPEYFEKNEPYLEAACND [DENND6A] | 3.09 ± 0.05 | 3.26 ± 0.43 | –
9 | VGQSLRIKEQEVCKLQEQLEATVK [SASS6] | 4.15 ± 0.44 | 4.26 ± 0.19 | –
10 | PTYKVMYKIVTAREWRCCPGHSGV [EMID1] | 2.5 ± 0.57 | 2.89 ± 0.75 | –
11 | VRNQQSLAVSNMGARSKGQCPEPP [PTPN9] | 4.3 ± 0.11 | 4.21 ± 0.39 | –
12 | KVLLDCGADPDSRDFDNNTPLHIA [FEM1A] | 4.02 ± 0.17 | 4.07 ± 0.15 | –
13 | EPSWECKFDHIEVRDGPFGFSPII [NETO1] | 2.36 ± 0.36 | 2.3 ± 0.22 | –
14 | VFDNAIRAALISRRHLQFWKSHLR [RHOBTB2] | 2.23 ± 0.38 | 2.1 ± 0.3 | –
15 | YSSQLSQVQSLITNVESQLAEIRS [KRT33B] | 3.49 ± 0.1 | 3.66 ± 0.2 | –
16 | SGTDAEETILNAFKMLDPDGKGKI [MYL5] | 4.51 ± 0.18 | 4.31 ± 0.17 | –
17 | LKQAKELDRERAAANEQLTRAILR [CHCHD3] | 3.56 ± 0.11 | 3.81 ± 0.2 | –

Row | Sequence | protein stability index [1] | protein stability index [2] | protein stability index (treatment: MLN4924 1 uM, 8 h, c terminus: native)
18 | YFALRKILKQLIADVTLDPETAHP [TRIM39] | 4.09 ± 0.2 | 4.34 ± 0.21 | –
19 | PQPNYADTLISQESCEKNDPLSLL [PCDHGA10] | 4.83 ± 0.11 | 4.85 ± 0.17 | –
20 | GNPDPEITWFKDFLPVDTSNNNGR [PTPRD] | 4.27 ± 0.31 | 4.76 ± 0.26 | –
21 | SARWLEVLRTYLELVLCVLVSIRN [FBXO33] | 2.33 ± 0.31 | 2.16 ± 0.21 | –
22 | HVFIGDHSGQVTILKLEQENCTLV [WDFY2] | 2.09 ± 0.39 | 2.19 ± 0.19 | –
23 | CLHMFLQDEIIDKSYTPSKIRHA [SNX3] | – | – | 2.77 ± 0.46
24 | KKDKDISKEKDTQNQNITLDCEGT [KMT2E] | 5.23 ± 0.26 | 5.49 ± 0.28 | –
25 | LLSFKRGSALEEKENKILVKETGY [TNFSF13B] | 3.45 ± 0.38 | 3.31 ± 0.37 | –
26 | LPAAEFHGLWDSLVYDVEVKSHLL [TRIP13] | 2.43 ± 0.22 | 2.42 ± 0.2 | –
27 | FYLPSSPNLSLASEDEEEYESGYA [SMG5] | 4.55 ± 0.067 | 4.59 ± 0.21 | –
28 | MAKFGVHRILLLAISLTKCLESTK [MIA2] | 3.27 ± 0.52 | 3.06 ± 0.8 | –
29 | EPGAGLGIGDMAFEGDMGAAGGDG [PSD2] | 5.72 ± 0.23 | 5.61 ± 0.41 | –
30 | GLLSLLLPETLNSPLLETFSDLQV [SLC22A15] | 2.47 ± 0.67 | 2.68 ± 0.68 | –
31 | KIENGYPLHAPEAYFPYFKKHNVT [CDC14A] | 2.2 ± 0.19 | 2.32 ± 0.18 | –
32 | WTPLHLACYFGHRQVVQDLLKAGA [OSBPL1A] | 2.61 ± 0.6 | 2.64 ± 0.48 | –
33 | QEGLLDRCVSFQARFAEKEELMLV [HDAC6] | 2.44 ± 0.34 | 2.52 ± 0.53 | –
